The values below come from patent US20260217793A1 (Chugai, published 2026).

Where a chain is given by its changes, count along the chain named. Like-named read-outs stand apart in the source and are kept apart here.

One test deals with T1, FcγRIIaR (human, UniProt P12318 34-217).
T1 sequence (looked up): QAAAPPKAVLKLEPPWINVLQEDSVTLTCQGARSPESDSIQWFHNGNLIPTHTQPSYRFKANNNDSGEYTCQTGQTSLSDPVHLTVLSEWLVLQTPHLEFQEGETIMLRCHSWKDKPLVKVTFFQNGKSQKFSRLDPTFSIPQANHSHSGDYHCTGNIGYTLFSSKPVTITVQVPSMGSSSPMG
Kind of test: SPR.

In test [1] the target is T2, human FcγRIIb extracellular domain with C-terminal His tag (human, UniProt P31994 43-217).
T2 sequence (looked up): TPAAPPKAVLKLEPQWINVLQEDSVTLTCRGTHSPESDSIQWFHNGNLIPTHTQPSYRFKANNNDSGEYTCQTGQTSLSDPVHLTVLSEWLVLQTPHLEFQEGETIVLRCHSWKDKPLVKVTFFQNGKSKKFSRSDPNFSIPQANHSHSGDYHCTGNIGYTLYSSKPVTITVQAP
Nature of the test: SPR.

Test [2] addresses T2, human FcγRIIb extracellular domain with …. Nature of the test: SPR. The source holds these as a separate data set.
Test [3] concerns the target T3, human FcγRIIa type R (Arg131) extracellular domain with C-terminal His tag (human, UniProt P12318 34-217).
T3 sequence (looked up): T1 sequence (looked up)
Nature of the test: SPR.

Test [4] addresses T2, human FcγRIIb extracellular domain with …. Nature of the test: SPR. This is another data set of the same source. (In general: SPR reads the build-up and loss of mass on a sensor chip optically.)
The target of test [5] is T3, human FcγRIIa type R (Arg131) …. Kind of test: SPR. The source holds these as a separate data set.
Test [6] addresses T2, human FcγRIIb extracellular domain with …. Kind of test: SPR. This is another data set of the same source.
The target of test [7] is human FcγRIa extracellular domain with C-terminal His tag (human, UniProt P12314 16-292). Nature of the test: SPR.
Test [8] deals with T4, human FcγRIIa type H (His131) extracellular domain with C-terminal His tag (human, UniProt P12318 34-217).
T4 sequence (looked up): T1 sequence (looked up) with R134H
Nature of the test: SPR.

Test [9] deals with human FcγRIIIa type V (Val158) extracellular domain with C-terminal His tag (human, UniProt P08637 17-208). Nature of the test: SPR.
Test [10] addresses T5, FcγRIIa type H extracellular domain with C-terminal His tag (human, UniProt P12318 34-217).
T5 sequence (looked up): T1 sequence (looked up) with R134H
Kind of test: SPR.

The target of test [11] is FcγRIIIa type V extracellular domain with C-terminal His tag (human, UniProt P08637 17-208). Nature of the test: SPR.
Target sequence in this assay (P08637 17-208 F176V): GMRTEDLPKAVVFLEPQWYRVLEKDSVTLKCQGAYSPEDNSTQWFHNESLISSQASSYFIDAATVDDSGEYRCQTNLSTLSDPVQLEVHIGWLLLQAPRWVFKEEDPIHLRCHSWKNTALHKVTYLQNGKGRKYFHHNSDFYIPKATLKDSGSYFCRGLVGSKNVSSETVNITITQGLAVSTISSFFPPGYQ
The target of the next test is T6, FcγRIIaH (human, UniProt P12318 34-217).
T6 sequence (looked up): T1 sequence (looked up) with R134H
Kind of test: SPR.

Test [12] concerns the target T7, FcγRIIb extracellular domain with C-terminal His tag (human, UniProt P31994 43-217).
T7 sequence (looked up): T2 sequence (looked up)
Nature of the test: SPR.

For test [13], the target named is T7, FcγRIIb extracellular domain with …. Nature of the test: SPR. This is another data set of the same source.
Test [14] has the same target. Nature of the test: SPR. The source holds these as a separate data set.
The target in test [15] is T8, FcγRIIa type H extracellular domain with C-terminal His tag (human, UniProt P12318 34-217).
T8 sequence (looked up): T1 sequence (looked up) with R134H
Kind of test: SPR. The source holds these as a separate data set.

The target in test [16] is FcγRIIIa type V extracellular domain with C-terminal His tag (human, UniProt P08637 17-208). Kind of test: SPR. This is another data set of the same source.
Target sequence in this assay (P08637 17-208 F176V): as above
For test [17], the target named is T9, FcγRIIa type R extracellular domain with C-terminal His tag (human, UniProt P12318 34-217).
T9 sequence (looked up): T1 sequence (looked up)
Kind of test: ratio of SPR KDs vs IL6R-B3/IL6R-L.

Test [18] deals with T10, FcγRIIb extracellular domain with C-terminal His tag (human, UniProt P31994 43-217).
T10 sequence (looked up): T2 sequence (looked up)
Nature of the test: ratio of SPR KDs vs IL6R-B3/IL6R-L.

Test [19] deals with T10, FcγRIIb extracellular domain with …. Nature of the test: ratio of SPR KDs, FcγRIIaR over FcγRIIb, same variant.
Another test has as its target T11, mouse FcγRIII (mouse, UniProt P08508 31-215).
T11 sequence (looked up): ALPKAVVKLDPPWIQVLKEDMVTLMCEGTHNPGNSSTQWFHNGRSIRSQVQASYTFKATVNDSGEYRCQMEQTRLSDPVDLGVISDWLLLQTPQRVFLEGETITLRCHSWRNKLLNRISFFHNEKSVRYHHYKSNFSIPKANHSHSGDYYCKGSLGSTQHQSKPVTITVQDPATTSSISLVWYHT
Kind of test: SPR.

Sequence of human FcγRIIIa type V (Val158) extracellular domain with C-terminal His tag (P08637 17-208 F176V): as the sequence (P08637 17-208 F176V) above
Sequence of human FcγRIa extracellular domain with C-terminal His tag (P12314 16-292): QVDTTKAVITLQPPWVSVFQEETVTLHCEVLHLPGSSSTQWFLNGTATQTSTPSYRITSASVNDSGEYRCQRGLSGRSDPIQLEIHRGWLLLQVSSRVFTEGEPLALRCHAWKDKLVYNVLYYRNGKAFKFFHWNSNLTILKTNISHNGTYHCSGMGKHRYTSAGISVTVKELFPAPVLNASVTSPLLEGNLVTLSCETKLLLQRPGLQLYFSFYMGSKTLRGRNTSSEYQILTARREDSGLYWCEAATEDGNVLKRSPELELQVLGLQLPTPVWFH

B1: IL6R-BP144/IL6R-L (antibody, human IgG1, kappa)
heavy: QVQLQESGPGLVKPSETLSLTCAVSGHSISHDHAWSWVRQPPGEGLEWIGFISYSGITNYNPSLQGRVTISRDNSKNTLYLQMNSLRAEDTAVYYCARSLARTTAMDYWGEGTLVTVSSASTKGPSVFPLAPSSKSTSGGTAALGCLVKDYFPEPVTVSWNSGALTSGVHTFPAVLQSSGLYSLSSVVTVPSSSLGTQTYICNVNHKPSNTKVDKKVEPKSCDKTHTCPPCPAPELLGDDSVFLFPPKPKDTLMISRTPEVTCVVVDVSHEDPEVKFNWYVDGVEVHNAKTKPREEQYNSTYRVVSVLTVLHQDWLNGKEYKCKVSNAALPAPIEKTISKAKGQPREPQVYTLPPSRDELTKNQVSLTCLVKGFYPSDIAVEWESNGQPENNYKTTPPVLDSDGSFFLYSKLTVDKSRWQQGNVFSCSVMHEALHNHYTQESLSLSP
light: not shown
In turn, B1 gave a Kd with FcγRIIaR of 5.9 µM.

B2: IL6R-BP567/IL6R-L (antibody, human IgG1, kappa)
heavy: B1 heavy with E235D, D239G, V266I, S269A, H270E, P273G, Y298D, A328K
light: not shown
On to B2, for which, in test [1], the “KD (IIaH)/KD (IIb)” value worked out at 1230. The “KD (IIaR)/KD (IIb)” value in test [2] is 64.4. The “KD (IIaR) of parent polypeptide/KD (IIaR) of altered polypeptide” value (“KD (IIaR) of parent polypeptide/KD” below) in test [3] stood at 1.2. Moreover, the “KD (IIb) of parent polypeptide/KD (IIb) of altered polypeptide” value (“KD (IIb) of parent polypeptide/KD” below) in test [4] is 225. The Kd in test [5] turned out to be 0.89 µM; in test [6], 0.014 µM; in [7], 0.00021 µM; in [8], 17 µM; in test [9], 39 µM.

B3: IL6R-BP245/IL6R-L (antibody, human IgG1, kappa)
heavy: B1 heavy with E235D, S269Q, H270D, P273G, Y298D, A328D, A332R
light: not shown
Consider B3, for which the affinity in test [10], expressed as Kd, was 23 µM.

B4: IL6R-BP533/IL6R-L (antibody, human IgG1, kappa)
heavy: B1 heavy with E235D, V266I, S269G, H270E, P273G, Y298D, A328K, A332R, P398L
light: not shown
As for B4, the “KD (IIaR)/KD (IIb)” value in [2] is 28.3. Moreover, in [4], the “KD (IIb) of parent polypeptide/KD” value came to 756. Binding in [9] was put at a Kd of 27 µM.

B5: IL6R-BP539/IL6R-L (antibody, human IgG1, kappa)
heavy: B1 heavy with V266I, S269G, H270E, P273G, E274P, Y298D, A328K, A332R
light: not shown
Take B5: the “KD (IIaR)/KD (IIb)” value in test [2] was 38. Also, the “KD (IIaR) of parent polypeptide/KD” value in [3] came out at 3.4. Further, the “KD (IIb) of parent polypeptide/KD” value in [4] was found to be 369. In test [9], this molecule registered a Kd of 34 µM.

B6: IL6R-BP248/IL6R-L (antibody, human IgG1, kappa)
heavy: B1 heavy with E235D, H270D, P273G, Y298D, A332R
light: not shown
B6: in test [11], binding was characterised by a dissociation constant (Kd) of 4400 µM.

B7: IL6R-BP550/IL6R-L (antibody, human IgG1, kappa)
heavy: B1 heavy with V266I, S269G, H270E, P273G, E274D, Y298D, A328K, A332R
light: not shown
Regarding B7, the “KD (IIaH)/KD (IIb)” value in test [1] stood at 656. Besides, the “KD (IIaR) of parent polypeptide/KD” value in test [3] worked out at 3.3. The “KD (IIb) of parent polypeptide/KD” value in test [4] was determined as 406. The molecule also yielded a Kd in [9] of 48 µM.

B8: IL6R-BP558/IL6R-L (antibody, human IgG1, kappa)
heavy: B1 heavy with V266I, S269G, H270E, P273G, E274D, A328K, A332R
light: not shown
For B8, the Kd in test [7] came to 0.015 µM; in test [9] it was 36 µM.

B9: IL6R-BP146/IL6R-L (antibody, human IgG1, kappa)
heavy: B1 heavy with L236Y
light: not shown
For B9, in the test with FcγRIIaH, binding was characterised by a dissociation constant (Kd) of 16 µM.

B10: IL6R-BP198/IL6R-L (antibody, human IgG1, kappa)
heavy: B1 heavy with E235D, L236Y, D239G, H270D, P273G, A332K
light: not shown
In the case of B10, the “KD (IIaR)/KD (IIb)” value in test [12] is 11 ratio. In test [13], the “KD (IIaH)/KD (IIb)” value came out at 102 ratio. In test [14], the “KD (IIb) of parent polypeptide/KD” value amounted to 15.7 ratio.

B11: IL6R-BP568/IL6R-L (antibody, human IgG1, kappa)
heavy: B1 heavy with E235D, D239G, V266I, S269A, H270E, P273G, A328K
light: not shown
With B11, in test [1], the “KD (IIaH)/KD (IIb)” value was determined as 748. Moreover, the “KD (IIaR)/KD (IIb)” value in test [2] came out at 46.1. Further, the “KD (IIaR) of parent polypeptide/KD” value in test [3] stood at 1.6. Moreover, in test [4], the “KD (IIb) of parent polypeptide/KD” value was found to be 211. In addition, the Kd in [5] turned out to be 0.68 µM; in [6], 0.015 µM; in [7], 0.00019 µM; in test [8], 11 µM; in [9] it was 25 µM.

B12: IL6R-BP548/IL6R-L (antibody, human IgG1, kappa)
heavy: B1 heavy with E235D, H270D, P273G, Y298D, A328K, A332R, Q421E
light: not shown
As for B12, the Kd is 9.4 µM in test [15] and 34 µM in test [16]. Also, in test [17], the “KD (IIaR) of parent polypeptide/KD” value is 2.2. The “KD (IIb) of parent polypeptide/KD” value in test [18] worked out at 162. Moreover, in test [19], the “KD (IIaR)/KD (IIb)” value was found to be 26.2.

B13: VH3/L(WT)-mIgG1 (antibody)
heavy: QVQLQESGPGLVKPSETLSLTCAVSGHSISHDHAWSWVRQPPGEGLEWIGFISYSGITNYNPSLQGRVTISRDNSKNTLYLQMNSLRAEDTAVYYCARSLARTTAMDYWGEGTLVTVSSAKTTPPSVYPLAPGSAAQTNSMVTLGCLVKGYFPEPVTVTWNSGSLSSGVHTFPAVLQSDLYTLSSSVTVPSSTWPSETVTCNVAHPASSTKVDKKIVPRDCGCKPCICTVPEVSSVFIFPPKPKDVLTITLTPKVTCVVVDISKDDPEVQFSWFVDDVEVHTAQTQPREEQFNSTFRSVSELPIMHQDWLNGKEFKCRVNSAAFPAPIEKTISKTKGRPKAPQVYTIPPPKEQMAKDKVSLTCMITDFFPEDITVEWQWNGQPAENYKNTQPIMDTDGSYFVYSKLNVQKSNWEAGNTFTCSVLHEGLHNHHTEKSLSHSPGK
light: not shown
Molecule B13 gave a Kd in the test with mouse FcγRIII of 0.282 µM.

A word on the Kd: it is the concentration at which binding is half-saturated. Read a high Kd as a looser complex.
